Source: patent publication US20090118185A1 (UNIVERSITY OF ROCHESTER, published 2009)

Tests used:
[1] = target: T1, 336(P1′-P3′)562 factor VIIIa mutant
T1 chain 1: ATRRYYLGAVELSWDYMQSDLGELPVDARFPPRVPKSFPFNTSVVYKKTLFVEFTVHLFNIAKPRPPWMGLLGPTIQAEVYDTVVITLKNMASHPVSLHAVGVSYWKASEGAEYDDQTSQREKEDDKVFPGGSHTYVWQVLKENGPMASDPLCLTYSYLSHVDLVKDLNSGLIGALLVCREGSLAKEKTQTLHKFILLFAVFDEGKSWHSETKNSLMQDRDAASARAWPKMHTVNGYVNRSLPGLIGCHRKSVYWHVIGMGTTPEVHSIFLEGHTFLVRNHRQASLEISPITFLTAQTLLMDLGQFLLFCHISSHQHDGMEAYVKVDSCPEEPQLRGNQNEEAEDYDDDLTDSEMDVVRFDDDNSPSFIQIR
T1 chain 2: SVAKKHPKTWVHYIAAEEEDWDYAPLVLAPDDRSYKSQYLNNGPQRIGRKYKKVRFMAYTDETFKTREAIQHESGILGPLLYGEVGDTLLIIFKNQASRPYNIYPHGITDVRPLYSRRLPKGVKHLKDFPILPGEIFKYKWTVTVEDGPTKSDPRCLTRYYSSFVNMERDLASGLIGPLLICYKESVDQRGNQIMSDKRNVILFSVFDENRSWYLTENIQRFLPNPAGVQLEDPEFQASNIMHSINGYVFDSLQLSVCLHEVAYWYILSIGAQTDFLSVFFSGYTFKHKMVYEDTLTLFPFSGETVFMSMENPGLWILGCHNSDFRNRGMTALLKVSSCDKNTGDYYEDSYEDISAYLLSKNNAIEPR
T1 chain 3: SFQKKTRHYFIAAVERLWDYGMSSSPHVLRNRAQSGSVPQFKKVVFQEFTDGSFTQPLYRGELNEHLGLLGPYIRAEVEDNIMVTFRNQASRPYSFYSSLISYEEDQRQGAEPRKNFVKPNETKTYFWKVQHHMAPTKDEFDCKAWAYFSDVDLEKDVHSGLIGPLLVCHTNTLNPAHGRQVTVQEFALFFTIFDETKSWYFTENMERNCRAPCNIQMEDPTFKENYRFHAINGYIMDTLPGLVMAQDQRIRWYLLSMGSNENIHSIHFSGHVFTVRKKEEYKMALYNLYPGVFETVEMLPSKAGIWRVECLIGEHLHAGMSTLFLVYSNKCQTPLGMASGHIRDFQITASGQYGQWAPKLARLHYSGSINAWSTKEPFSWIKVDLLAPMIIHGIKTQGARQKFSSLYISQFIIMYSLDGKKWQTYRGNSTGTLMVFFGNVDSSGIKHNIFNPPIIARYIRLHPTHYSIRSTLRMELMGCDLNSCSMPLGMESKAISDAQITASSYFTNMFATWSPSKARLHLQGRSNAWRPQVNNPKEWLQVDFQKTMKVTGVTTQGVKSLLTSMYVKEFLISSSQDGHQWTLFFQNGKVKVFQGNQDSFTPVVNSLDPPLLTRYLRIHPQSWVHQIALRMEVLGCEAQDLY

[2] = target: T2, 336(P4-P3′)562 factor VIIIa mutant
T2 chain 1: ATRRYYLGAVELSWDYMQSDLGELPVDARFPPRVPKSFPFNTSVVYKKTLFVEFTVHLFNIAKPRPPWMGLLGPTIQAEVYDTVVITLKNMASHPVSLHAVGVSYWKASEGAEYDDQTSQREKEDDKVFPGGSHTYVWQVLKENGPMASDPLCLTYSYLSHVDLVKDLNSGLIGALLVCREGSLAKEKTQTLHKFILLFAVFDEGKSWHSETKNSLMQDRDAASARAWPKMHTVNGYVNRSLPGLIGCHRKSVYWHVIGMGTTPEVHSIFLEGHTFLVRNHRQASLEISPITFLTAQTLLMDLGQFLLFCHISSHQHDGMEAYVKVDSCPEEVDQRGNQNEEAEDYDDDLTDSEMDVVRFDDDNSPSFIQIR
T2 chain 2: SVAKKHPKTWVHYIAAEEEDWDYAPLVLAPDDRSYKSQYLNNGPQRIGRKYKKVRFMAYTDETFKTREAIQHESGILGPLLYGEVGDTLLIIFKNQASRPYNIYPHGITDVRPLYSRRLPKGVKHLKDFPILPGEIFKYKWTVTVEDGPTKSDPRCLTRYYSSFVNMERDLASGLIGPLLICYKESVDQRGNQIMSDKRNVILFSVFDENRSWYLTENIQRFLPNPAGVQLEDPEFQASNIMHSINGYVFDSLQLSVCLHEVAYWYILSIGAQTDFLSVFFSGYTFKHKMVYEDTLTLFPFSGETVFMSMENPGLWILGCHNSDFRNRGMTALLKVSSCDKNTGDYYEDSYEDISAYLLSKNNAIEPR
T2 chain 3: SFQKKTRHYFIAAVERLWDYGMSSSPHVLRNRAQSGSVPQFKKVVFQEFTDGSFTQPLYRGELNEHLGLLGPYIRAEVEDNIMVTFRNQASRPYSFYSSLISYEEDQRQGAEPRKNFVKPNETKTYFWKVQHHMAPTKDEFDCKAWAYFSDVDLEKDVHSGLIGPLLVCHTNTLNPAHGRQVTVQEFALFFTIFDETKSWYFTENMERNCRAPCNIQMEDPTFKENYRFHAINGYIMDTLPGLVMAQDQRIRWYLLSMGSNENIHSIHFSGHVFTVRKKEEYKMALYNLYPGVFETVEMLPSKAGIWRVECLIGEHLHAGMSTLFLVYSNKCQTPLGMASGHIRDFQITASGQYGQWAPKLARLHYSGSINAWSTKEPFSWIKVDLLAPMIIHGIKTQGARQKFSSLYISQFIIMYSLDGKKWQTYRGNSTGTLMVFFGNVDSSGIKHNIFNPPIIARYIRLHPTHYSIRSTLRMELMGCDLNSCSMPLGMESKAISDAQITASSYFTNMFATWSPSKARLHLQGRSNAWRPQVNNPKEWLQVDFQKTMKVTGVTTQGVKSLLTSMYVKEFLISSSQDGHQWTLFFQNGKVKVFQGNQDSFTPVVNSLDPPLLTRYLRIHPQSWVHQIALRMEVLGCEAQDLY

[3] = target: T3, WT factor VIII (B-domainless recombinant human factor VIII procofactor)
T3 chain 1: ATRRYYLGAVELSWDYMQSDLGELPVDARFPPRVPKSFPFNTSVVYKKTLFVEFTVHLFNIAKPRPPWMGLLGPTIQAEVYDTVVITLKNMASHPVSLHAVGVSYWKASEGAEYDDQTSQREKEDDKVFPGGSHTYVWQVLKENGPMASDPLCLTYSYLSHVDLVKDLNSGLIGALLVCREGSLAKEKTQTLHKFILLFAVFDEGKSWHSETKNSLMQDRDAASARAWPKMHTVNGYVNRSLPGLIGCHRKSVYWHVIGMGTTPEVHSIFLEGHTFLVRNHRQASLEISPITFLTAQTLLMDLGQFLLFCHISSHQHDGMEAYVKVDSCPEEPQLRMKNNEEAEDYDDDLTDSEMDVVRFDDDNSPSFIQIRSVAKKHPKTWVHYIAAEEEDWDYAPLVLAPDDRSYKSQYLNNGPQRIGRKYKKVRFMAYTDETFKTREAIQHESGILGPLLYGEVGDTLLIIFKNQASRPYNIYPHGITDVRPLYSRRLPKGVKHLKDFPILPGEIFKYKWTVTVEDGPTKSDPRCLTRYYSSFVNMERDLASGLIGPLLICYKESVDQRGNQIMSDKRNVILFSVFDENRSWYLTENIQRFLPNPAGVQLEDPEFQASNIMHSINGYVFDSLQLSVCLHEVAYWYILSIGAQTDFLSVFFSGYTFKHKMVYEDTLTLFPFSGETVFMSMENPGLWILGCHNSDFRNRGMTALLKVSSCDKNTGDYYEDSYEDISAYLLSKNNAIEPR
T3 chain 2: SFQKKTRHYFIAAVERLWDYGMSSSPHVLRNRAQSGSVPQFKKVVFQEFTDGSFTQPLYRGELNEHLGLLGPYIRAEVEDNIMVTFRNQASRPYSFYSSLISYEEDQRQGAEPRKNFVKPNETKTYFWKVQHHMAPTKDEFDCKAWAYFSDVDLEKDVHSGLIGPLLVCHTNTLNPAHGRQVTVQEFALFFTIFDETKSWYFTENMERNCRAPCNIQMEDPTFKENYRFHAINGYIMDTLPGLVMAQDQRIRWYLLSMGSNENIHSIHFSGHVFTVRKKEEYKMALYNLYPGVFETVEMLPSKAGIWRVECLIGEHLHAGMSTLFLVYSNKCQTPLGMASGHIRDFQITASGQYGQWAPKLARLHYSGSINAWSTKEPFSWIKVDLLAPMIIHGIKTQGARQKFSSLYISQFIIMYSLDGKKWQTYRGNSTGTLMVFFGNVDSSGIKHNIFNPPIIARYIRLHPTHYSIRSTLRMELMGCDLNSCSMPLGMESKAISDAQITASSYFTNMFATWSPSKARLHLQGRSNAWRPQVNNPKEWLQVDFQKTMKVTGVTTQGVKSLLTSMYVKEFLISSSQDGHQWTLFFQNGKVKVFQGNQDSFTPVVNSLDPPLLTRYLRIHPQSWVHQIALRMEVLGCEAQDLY

[4] = target: T4, 336(P4-P2)562 factor VIIIa mutant
T4 chain 1: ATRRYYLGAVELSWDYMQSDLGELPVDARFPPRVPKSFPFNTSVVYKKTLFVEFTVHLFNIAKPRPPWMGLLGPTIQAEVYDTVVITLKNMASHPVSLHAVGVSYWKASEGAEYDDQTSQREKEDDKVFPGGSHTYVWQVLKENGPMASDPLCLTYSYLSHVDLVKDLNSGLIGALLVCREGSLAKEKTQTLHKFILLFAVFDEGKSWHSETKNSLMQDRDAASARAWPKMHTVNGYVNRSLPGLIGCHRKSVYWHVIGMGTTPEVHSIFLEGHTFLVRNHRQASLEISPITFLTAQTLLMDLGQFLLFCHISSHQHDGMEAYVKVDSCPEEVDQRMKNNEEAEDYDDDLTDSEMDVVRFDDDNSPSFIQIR
T4 chain 2: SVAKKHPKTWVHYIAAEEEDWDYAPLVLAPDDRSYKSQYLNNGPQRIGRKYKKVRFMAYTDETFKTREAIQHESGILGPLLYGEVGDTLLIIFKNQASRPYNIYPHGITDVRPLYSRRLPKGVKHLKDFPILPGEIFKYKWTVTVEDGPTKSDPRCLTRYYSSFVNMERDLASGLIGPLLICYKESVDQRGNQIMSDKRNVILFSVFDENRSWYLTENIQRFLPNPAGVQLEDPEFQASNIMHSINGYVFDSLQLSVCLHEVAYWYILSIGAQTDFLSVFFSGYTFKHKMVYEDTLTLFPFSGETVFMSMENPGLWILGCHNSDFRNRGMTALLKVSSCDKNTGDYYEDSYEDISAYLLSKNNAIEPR
T4 chain 3: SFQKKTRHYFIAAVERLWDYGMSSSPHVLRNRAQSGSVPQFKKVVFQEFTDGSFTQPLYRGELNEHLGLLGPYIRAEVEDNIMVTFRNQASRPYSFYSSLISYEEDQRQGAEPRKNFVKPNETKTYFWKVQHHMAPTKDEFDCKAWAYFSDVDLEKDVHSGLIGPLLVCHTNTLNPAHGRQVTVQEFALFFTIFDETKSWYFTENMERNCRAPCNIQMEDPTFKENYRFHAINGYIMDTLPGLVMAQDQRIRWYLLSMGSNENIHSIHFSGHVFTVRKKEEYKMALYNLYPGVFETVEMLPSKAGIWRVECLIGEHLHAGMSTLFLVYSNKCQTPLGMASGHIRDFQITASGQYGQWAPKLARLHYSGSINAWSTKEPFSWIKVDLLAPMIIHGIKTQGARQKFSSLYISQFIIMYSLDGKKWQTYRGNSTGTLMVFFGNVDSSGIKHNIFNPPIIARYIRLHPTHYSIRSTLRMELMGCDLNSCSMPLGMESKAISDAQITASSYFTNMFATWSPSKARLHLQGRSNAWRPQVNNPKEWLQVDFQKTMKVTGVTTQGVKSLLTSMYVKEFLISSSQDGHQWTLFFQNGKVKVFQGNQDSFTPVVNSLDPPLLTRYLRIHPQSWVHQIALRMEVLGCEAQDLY

B1: human activated protein C (protein)
chain 1: ANSFLEELRHSSLERECIEEICDFEEAKEIFQNVDDTLAFWSKHVDGDQCLVLPLEHPCASLCCGHGTCIDGIGSFSCDCRSGWEGRFCQREVSFLNCSLDNGGCTHYCLEEVGWRRCSCAPGYKLGDDLLQCHPAVKFPCGRPWKRMEKKRSHL
chain 2: LIDGKMTRRGDSPWQVVLLDSKKKLACGAVLIHPSWVLTAAHCMDESKKLLVRLGEYDLRRWEKWELDLDIKEVFVHPNYSKSTTDNDIALLHLAQPATLSQTIVPICLPDSGLAERELNQAGQETLVTGWGYHSSREKEAKRNRTFVLNFIKIPVVPHNECSEVMSNMVSENMLCAGILGDRQDACEGDSGGPMVASFHGTWFLVGLVSWGEGCGLLHNYGVYTKVSRYLDWIHGHIRDKEAPQKSWAP
Q: Which A1 Cleavage (nM A1/min/nM APC) (nM A1/min/nM APC) [1] does the source give for B1 here?
A: 1.1

Q: And the A2 Cleavage (nM A2/min/nM APC) (nM A2/min/nM APC) [1]?
A: 0.3

Q: What about the “fold reduction of cleavage rate at the A1 site compared with WT” value [1] of the same protein?
A: reduced ˜16 and ˜9-fold, respectively, as compared with the WT protein

Q: What about the A1 Cleavage (nM A1/min/nM APC) (nM A1/min/nM APC) [2] of the same protein?
A: 0.1

Q: What about the A2 Cleavage (nM A2/min/nM APC) (nM A2/min/nM APC) [2] of the same protein?
A: 0.05

Q: And the “fold reduction of A1 subunit cleavage rate relative to WT” value [2]?
A: reduced by ˜100-fold relative to WT

Q: What about the A2 Cleavage (nM A2/min/nM APC) (nM A2/min/nM APC) [3] of the same protein?
A: 0.1

Q: And the A1 Cleavage (nM A1/min/nM APC) (nM A1/min/nM APC) [4]?
A: 0.6

Q: What about the A2 Cleavage (nM A2/min/nM APC) (nM A2/min/nM APC) [4] of the same protein?
A: 0.2

Q: What about the “fold reduction of cleavage rate at the A1 site compared with WT” value [4] of the same protein?
A: reduced ˜16 and ˜9-fold, respectively, as compared with the WT protein
